Measurements as given in patent publication US6417328B1, “Trail receptors, nucleic acids encoding the same, and methods of use thereof” (Thomas Jefferson Univeristy, priority 1997, dated 2002).
Residues, ends and D or L forms follow the SMILES beside them. *: point of attachment. Cbz = O=C(OCc1ccccc1)*; CH2F = FC*

Experiments:
Type in all cases: cell-based, human
apoptosis by TRAIL = test: Inhibition of apoptosis by TRAIL (FIG. 3F)
apoptosis by TNF-α = test: Inhibition of apoptosis by TNF-α (FIG. 3F)
[1] = tested on: DR5-induced apoptosis in MCF7 cells; test: Inhibition of DR5-induced apoptosis in transfected MCF7 cells
From the text: (§1) For apoptosis assays the mammalian double expression vector pRSC (Akporiaye E. T. et al. (1997) BioTech. 22, 68) was used, which allows for expression of lacZ under the RSV promoter and the test cDNA (DR4, DR4A, DR5, DR5A, TRAIL-R3) under the CMV promoter. CrmA, FLAME-1, caspase-8-DN (C345A) or caspase-10-DN (C358A) (Alnemnri E. S. et al. (1997) J. Biol. Chem. 272, 18542-18545) were expressed using pcDNA3 (Invitrogen).
(§2) FIG. 3 illustrates that expression of DR5 but not TRAIL-R3 induces apoptosis in human cells. MCF7 (FIG. 3A) and 293 (FIG. 3B) cells were transfected with the indicated pRSC-lacZ constructs. Thirty hours after transfection cells were stained with Pgal and examined for morphological signs of apoptosis. The graphs show the percentage of round blue apoptotic cells (mean +SD) as a function of total blue cells under each condition (≧23).
(§3) MCF7 cells were transfected with DR4 or DR5 expression constructs in the presence of z-VAD-fmk (20 μM) or co-transfected with a four-fold excess of a CrmA, caspase-8-DN, caspase-10-DN or FLAME-1 construct or an empty vector. The data are represented as in FIGS. 3A and 3B.

[2] = tested on: DR4-induced apoptosis in MCF7 cells; test: Inhibition of DR4-induced apoptosis in transfected MCF7 cells
From the text: as §1, §2, §3

MCF7 cells [3] = test: Apoptosis induction by transient expression in MCF7 cells; settings: pRSC-lacZ constructs, thirty hours after transfection (FIG. 3A)
From the text: as §1, §2

293 cells = test: Apoptosis induction by transient expression in 293 cells; settings: pRSC-lacZ constructs, thirty hours after transfection (FIG. 3B)
From the text: as §1, §2

MCF7 cells [4] = test: Blocking of TRAIL-induced apoptosis in MCF7 cells; settings: MCF7 cells transfected 36 h, then soluble TRAIL 250 ng/ml for 8 h (FIG. 3C)
Procedure: Cells were stained 8 hours later with propidium iodide and the nuclei were examined by fluorescence microscopy.
MCF7 cells were transfected with TRAIL-R3 or vector alone for 36 h, then treated with soluble TRAIL (250 ng/ml) for 8 h. The data are represented as in FIGS. 3A and 3B, after subtracting the background killing (12-15%) as a result of transfection.

[5] = MCF7 cells co-transfected with four-fold excess of inhibitor construct (FIG. 3D, 3E)

## DR5s: alternatively spliced isoform of DR5, 350 amino acids (SEQ ID NO:6), truncated death domain
Apoptosis by TRAIL
  Inhibition of apoptosis by TRAIL: substantially inhibits
Apoptosis by TNF-α
  Inhibition of apoptosis by TNF-α: not

## COC(=O)C[C@H](NC(=O)[C@H](C)NC(=O)[C@@H](NC(=O)OCc1ccccc1)C(C)C)C(=O)CF [z-VAD-fmk, reference compound] (Cbz-Val-Ala-Asp(OMe)-CH2F)
[1]; MCF7 cells transfected with DR5 construct in the presence of inhibitor 20 μM (FIG. 3D)
  Inhibition of DR5-induced apoptosis: efficiently blocked
[2]; MCF7 cells transfected with DR4 construct in the presence of inhibitor 20 μM (FIG. 3D)
  Inhibition of DR4-induced apoptosis: inhibited

B1: DR5: human TRAIL receptor protein of 411 amino acids (SEQ ID NO:2) with cytoplasmic death domain (protein, listed as Homo sapiens)
chain: MEQRGQNAPAASGARKRHGPGPREARGARPGLRVPKTLVLVVAAVLLLVSAESALITQQDLAPQQRVAPQQKRSSPSEGLCPPGHHISEDGRDCISCKYGQDYSTHWNDLLFCLRCTRCDSGEVELSPCTTTRNTVCQCEEGTFREEDSPEMCRKCRTGCPRGMVKVGDCTPWSDIECVHKESGIIIGVTVAAVVLIVAVFVCKSLLWKKVLPYLKGICSGGGGDPERVDRSSQRPGAEDNVLNEIVSILQPTQVPEQEMEVQEPAEPTGVNMLSPGESEHLLEPAEAERSQRRRLLVPANEGDPTETLRQCFDDFADLVPFDSWEPLMRKLGLMDNEIKVAKAEAAGHRDTLYTMLIKWVNKTGRDASVHTLLDALETLGERLAKQKIEDHLLSSGKFMYLEGNADSAMS
MCF7 cells [3]
  Induction of apoptosis by transient expression: triggers apoptosis
293 cells
  Induction of apoptosis by transient expression: triggers apoptosis

B2: TRAIL-R3: human TRAIL receptor protein of 299 amino acids (SEQ ID NO:4) without cytoplasmic domain (protein, listed as Homo sapiens)
chain: MQGVKERFLPLGNSGDRAPRPPDGRGRVRPRTQDGVGNHTMARIPKTLKFVVVIVAVLLPVLAYSATTARQEEVPQQTVAPQQQRHSFKGEECPAGSHRSEHTGACNPCTEGVDYTNASNNEPSCFPCTVCKSDQKHKSSCTMTRDTVCQCKEGTFRNENSPEMCRKCSRCPSGEVQVSNCTSWDDIQCVEEFGANATVETPAAEETMNTSPGTPAPAAEETMNTSPGTPAPAAEETMTTSPGTPAPAAEETMTTSPGTPAPAAEETMTTSPGTPASSHYLSCTIVGIIVLIVLLIVFV
MCF7 cells [4]
  Blocking of TRAIL-induced apoptosis by transient (ectopic) expression: significantly blocked
MCF7 cells [3]
  Induction of apoptosis by transient expression: incapable of inducing apoptosis
293 cells
  Induction of apoptosis by transient expression: incapable of inducing apoptosis

B3: caspase-8-DN: dominant negative inhibitor caspase-8 (C345A), expressed using pcDNA3 (protein, UniProt Q14790 1-479, looked up, variant C345A)
chain: MDFSRNLYDIGEQLDSEDLASLKFLSLDYIPQRKQEPIKDALMLFQRLQEKRMLEESNLSFLKELLFRINRLDLLITYLNTRKEEMERELQTPGRAQISAYRVMLYQISEEVSRSELRSFKFLLQEEISKCKLDDDMNLLDIFIEMEKRVILGEGKLDILKRVCAQINKSLLKIINDYEEFSKERSSSLEGSPDEFSNGEELCGVMTISDSPREQDSESQTLDKVYQMKSKPRGYCLIINNHNFAKAREKVPKLHSIRDRNGTHLDAGALTTTFEELHFEIKPHDDCTVEQIYEILKIYQLMDHSNMDCFICCILSHGDKGIIYGTDGQEAPIYELTSQFTGLKAPSLAGKPKVFFIQACQGDNYQKGIPVETDSEEQPYLEMDLSSPQTRYIPDEADFLLGMATVNNCVSYRNPAEGTWYIQSLCQSLRERCPRGDDILTILTEVNYEVSNKDDKKNMGKQMPQPTFTLRKKLVFPSD
[1]; [5]
  Inhibition of DR5-induced apoptosis: significantly inhibited
[2]; [5]
  Inhibition of DR4-induced apoptosis: significantly inhibited
